Kd data for 1 molecule are collected here from article PMC4254451, “The Crystal Structures of Apo and cAMP-Bound GlxR from Corynebacterium glutamicum Reveal Structural and Dynamic Changes upon cAMP Binding in CRP/FNR Family Transcription Factors”.

Usually Kd stands for the concentration at which binding is half-saturated.

The target in this data set is T1, GlxR (Cg-GlxR) (Corynebacterium glutamicum, UniProt Q79VI7 1-227).
T1 sequence: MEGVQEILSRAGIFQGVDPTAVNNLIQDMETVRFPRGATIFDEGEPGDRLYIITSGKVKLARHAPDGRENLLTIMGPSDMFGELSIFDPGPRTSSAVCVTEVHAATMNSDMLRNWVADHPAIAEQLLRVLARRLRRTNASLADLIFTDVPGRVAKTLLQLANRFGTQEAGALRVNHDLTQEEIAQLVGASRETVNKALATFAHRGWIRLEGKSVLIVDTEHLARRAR
In words: fluorescence anisotropy; 1.5 mM cAMP; 100 mM KH2PO4 pH 7.8, 200 mM KCl, 1 mM 1-thioglycerol, 0 or 1.5 mM cAMP, 5 nM labelled DNA; temperature not stated. The settings on record: protein: recombinant; tags: His6 (N-terminal, pET16b); chain copies: 2; label: 5'-FITC on strand 1; blunt.

B1: FITC-labelled 26-mer duplex (dsDNA)
DNA 1: ATTAATGTGAGTTAGCTCACTCATTA
DNA 2: TAATGAGTGAGCTAACTCACATTAAT
B1: the dissociation constant Kd is 87 nM.
